From article PMC6949303 (Nature Communications, 2020)

B6: wild-type IgE-Fc3-4 (co-expressed with the ligelizumab scFv for crystallisation) (domain or fragment, human)
chain: CADSNPRGVSAYLSRPSPFDLFIRKSPTITCLVVDLAPSKGTVNLTWSRASGKPVNHSTRKEEKQRNGTLTVTSTLPVGTRDWIEGETYQCRVTHPHLPRALMRSTTKTSGPRAAPEVYAFATPEWPGSRDKRTLACLIQNFMPEDISVQWLHNEVQLPDARHSTTQPRKTKGSGFFVFSRLEVTRAEWEQKDEFICRAVHEAASPSQTVQRAVSVNP
notes: human IgE heavy chain constant region, Cε3 and Cε4 domains, wild type (C328); also called C328 IgE-Fc3-4 fragment; wt C328 IgE-Fc3-4; source: HEK 293-6E, co-transfected with ligelizumab scFv, complex purified from supernatant (Ni-NTA, Superdex 200)

Assays:
[1] = target: T1, Ligelizumab IgG; assay: SPR; 100 RU ligelizumab or omalizumab IgG immobilised by amine coupling on CM5 (ligelizumab pH 5.0, omalizumab pH 4.5); 0.3-5 nM C328 or C335 IgE-Fc3-4 injected 120 s, dissociation 180 s; HBS-EP+, 10 ul/min, Biacore X100; 1:1 langmuir fit; conditions: both partners purified
T1 construct: constant region of the IgG heavy chain; constant region of the light chain; also called QGE031; source: produced and provided by Novartis Pharma AG

[2] = target: T2, wild-type C328 IgE-Fc3-4 (Homo sapiens, UniProt P01854); assay: as above; conditions: both partners purified
T2 construct: human IgE heavy chain constant region, Fc fragment of the Cε3 and Cε4 domains, wild-type variant named C328; PDB 6UQR holds wt C328 IgE-Fc3-4 made in HEK 293-6E for the crystal; also called wt C328 IgE-Fc3-4

[3] = target: T3, Omalizumab IgG; assay: as above; conditions: both partners purified
T3 construct: also called Xolair; source: produced and provided by Novartis Pharma AG

[4] = target: T4, wild-type C328 IgE-Fc3-4 (human, UniProt P01854); assay: SPR; Biacore X100, CM5 chip, HBS-EP+; 100 RU ligelizumab or omalizumab IgG immobilised; 0.3–5 nM C328 or C335 IgE-Fc3-4 injected 120 s, dissociation 180 s; conditions: both partners purified
T4 construct: human IgE heavy chain constant region, Cε3 and Cε4 domains, variant named C328; also called wt C328 IgE-Fc3-4

[5] = target: B6; assay: crystal structure; scFv:IgE-Fc3-4 complex, hanging drop, 0.2 M Na thiocyanate pH 6.9, 20% PEG3350, 10 mM spermidine, 14 °C; 3.65 Å; conditions: both partners purified
[6] = target: the molecule itself; assay: as above
[7] = target: T5, wild-type C328 IgE-Fc3-4 (human, UniProt P01854 209-426); assay: SPR; 1000 RU FcεRIα immobilised, 20 nM IgE-Fc3-4 captured; 3.13–100 nM ligelizumab or omalizumab injected 120 s, dissociation 180 s; conditions: both partners purified
T5 construct: human IgE heavy chain constant region, Cε3 and Cε4 domains, variant named C328; also called wt C328 IgE-Fc3-4

B1: mutated C335 IgE-Fc3-4 (domain or fragment)
chain: AADSNPRCVSAYLSRPSPFDLFIRKSPTITCLVVDLAPSKGTVNLTWSRASGKPVNHSTRKEEKQRNGTLTVTSTLPVGTRDWIEGETYQCRVTHPHLPRALMRSTTKTSGPRAAPEVYAFATPEWPGSRDKRTLACLIQNFMPEDISVQWLHNEVQLPDARHSTTQPRKTKGSGFFVFSRLEVTRAEWEQKDEFICRAVHEAASPSQTVQRAVSVNPGK
modifications: Disulfide-linked homodimer via Cys335 (entity position 11), closed Cε3 conformation; N-glycosylated at Asn394. The change is not given; it is taken from 5HYS entity 3 (C328A/G335C). …
[1]
  Kd: 640 pM
  koff: 0.0065 s⁻¹
  kon: 1.1e+07 M⁻¹ s⁻¹

B2: Ligelizumab IgG (antibody, V domains shown)
VH: QVQLVQSGAEVMKPGSSVKVSCKASGYTFSWYWLEWVRQAPGHGLEWMGEIDPGTFTTNYNEKFKARVTFTADTSTSTAYMELSSLRSEDTAVYYCARFSHFSGSNYDYFDYWGQGTLVTVSS
VL: EIVMTQSPATLSVSPGERATLSCRASQSIGTNIHWYQQKPGQAPRLLIYYASESISGIPARFSGSGSGTEFTLTISSLQSEDFAVYYCQQSWSWPTTFGGGTKVEIK
notes: constant region of the IgG heavy chain; constant region of the light chain; also called QGE031; source: produced and provided by Novartis Pharma AG
[2]
  Kd: 11 pM
  koff: 0.00014 s⁻¹
  kon: 1.3e+07 M⁻¹ s⁻¹

B3: mutated C335 IgE-Fc3-4 (domain or fragment)
chain: AADSNPRCVSAYLSRPSPFDLFIRKSPTITCLVVDLAPSKGTVNLTWSRASGKPVNHSTRKEEKQRNGTLTVTSTLPVGTRDWIEGETYQCRVTHPHLPRALMRSTTKTSGPRAAPEVYAFATPEWPGSRDKRTLACLIQNFMPEDISVQWLHNEVQLPDARHSTTQPRKTKGSGFFVFSRLEVTRAEWEQKDEFICRAVHEAASPSQTVQRAVSVNPGK
[3]
  Kd: 608 pM
  koff: 0.0049 s⁻¹
  kon: 7.7e+06 M⁻¹ s⁻¹

B4: Ligelizumab IgG (antibody, V domains shown)
VH: QVQLVQSGAEVMKPGSSVKVSCKASGYTFSWYWLEWVRQAPGHGLEWMGEIDPGTFTTNYNEKFKARVTFTADTSTSTAYMELSSLRSEDTAVYYCARFSHFSGSNYDYFDYWGQGTLVTVSS
VL: EIVMTQSPATLSVSPGERATLSCRASQSIGTNIHWYQQKPGQAPRLLIYYASESISGIPARFSGSGSGTEFTLTISSLQSEDFAVYYCQQSWSWPTTFGGGTKVEIK
notes: heavy chain constant region of the IgG; light chain constant region; also called QGE031; source: produced and provided by Novartis Pharma AG
[4]
  fold higher affinity than C335 IgE-Fc3-4: ~60 fold

B5: ligelizumab single chain fragment variable (scFv) (scFv)
scFv: QVQLVQSGAEVMKPGSSVKVSCKASGYTFSWYWLEWVRQAPGHGLEWMGEIDPGTFTTNYNEKFKARVTFTADTSTSTAYMELSSLRSEDTAVYYCARFSHFSGSNYDYFDYWGQGTLVTVSSGTGGSGGGGSGGGGSGGGASEIVMTQSPATLSVSPGERATLSCRASQSIGTNIHWYQQKPGQAPRLLIYYASESISGIPARFSGSGSGTEFTLTISSLQSEDFAVYYCQQSWSWPTTFGGGTKVEIKENLYFQ
notes: ligelizumab VH domain; GTG(GSGGG)3AS linker; ligelizumab VL domain; also called ligelizumab scFv; ligelizumab single chain Fv; source: HEK 293-6E, co-transfected with IgE-Fc3-4, complex purified from supernatant (Ni-NTA, Superdex 200); not shown: His8, C-terminal, cleaved
[5]
  binding result: binds

## B6
[6]
  stoichiometry N: 2

B7: Recombinant extracellular part of human FcεRIα (receptor, UniProt P12319 26-205, looked up)
chain: VPQKPKVSLNPPWNRIFKGENVTLTCNGNNFFEVSSTKWFHNGSLSEETNSSLNIVNAKFEDSGEYKCQHQQVNESEPVYLEVFSDWLLLQASAEVVMEGQPLFLRCHGWRNWDVYKVIYYKDGEALKYWYENHNISITNATVEDSGTYYCTGKVWQLDYESEPLNITVIKAPREKYWLQ
notes: also called recombinant human FcεRIα
[7]
  binding result: binds
